Common to all, as to experiment: cell_activity; HEK293 mRNA electroporation, 48 h, mock 0.40%
What all share (details): tags: N-terminal SV40 NLS

One series addresses T1, PCS 7-8L.204 (synthetic (I-CreI derived, …)).
T1 chain: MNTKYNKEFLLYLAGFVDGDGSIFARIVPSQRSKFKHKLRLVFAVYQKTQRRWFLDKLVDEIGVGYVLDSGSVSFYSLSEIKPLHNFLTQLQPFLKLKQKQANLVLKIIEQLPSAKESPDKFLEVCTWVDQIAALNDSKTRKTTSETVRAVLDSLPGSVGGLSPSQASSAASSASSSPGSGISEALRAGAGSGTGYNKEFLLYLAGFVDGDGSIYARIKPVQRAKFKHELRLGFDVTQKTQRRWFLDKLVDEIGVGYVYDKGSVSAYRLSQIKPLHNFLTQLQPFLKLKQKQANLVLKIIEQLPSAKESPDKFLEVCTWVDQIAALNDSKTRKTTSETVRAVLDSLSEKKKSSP
How it is done:
(§1) In order to directly observe insertions or deletions at the intended PCS 7-8 meganuclease target site, a deep sequencing protocol was used. 2e⁶ HEK 293 cells were electroporated with 5 ug of PCS 7-8 meganuclease mRNA using a BioRad Gene Pulser Xcell according to the manufacturer's instructions. A mock electroporation was also performed with no mRNA. At 48 hours post-transfection, genomic DNA (gDNA) was harvested from cells. The PCS 7-8 locus was amplified by PCR using primers that flank the PCS 7-8 recognition sequence. This amplicon was run on an agarose gel for visual confirmation, extracted using a Macherey-Nagel Nucleospin Gel and PCR Clean-up kit, and sequencing libraries were prepared using the NEBNext Ultra II DNA Library Kit for Illumina from New England Biolabs. The paired-end sequencing libraries were read on an Illumina Miseq DNA sequencer. Sequencing data was analyzed using custom scripts. Reads with start or end points not within 25 bp of the full-length amplicon were removed. The percent of reads with indels was calculated by dividing the number of full-length reads having an indel that incorporated at least one of the middle 8 bp of the recognition sequence by the total number of full-length reads.

Another series concerns the target T2, PCS 7-8L.261 (synthetic (I-CreI derived, …)).
T2 chain: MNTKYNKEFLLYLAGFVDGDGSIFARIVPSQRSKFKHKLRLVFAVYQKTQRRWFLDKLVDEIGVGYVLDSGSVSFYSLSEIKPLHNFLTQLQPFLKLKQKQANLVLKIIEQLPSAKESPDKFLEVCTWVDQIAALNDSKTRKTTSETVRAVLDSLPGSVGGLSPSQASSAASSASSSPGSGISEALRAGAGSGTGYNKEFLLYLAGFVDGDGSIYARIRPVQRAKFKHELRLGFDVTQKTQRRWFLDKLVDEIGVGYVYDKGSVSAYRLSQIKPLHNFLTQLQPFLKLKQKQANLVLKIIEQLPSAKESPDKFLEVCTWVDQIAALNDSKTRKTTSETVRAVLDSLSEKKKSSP
The protocol:
as §1

The next series addresses T3, PCS 7-8L.262 (synthetic (I-CreI derived, …)).
T3 chain: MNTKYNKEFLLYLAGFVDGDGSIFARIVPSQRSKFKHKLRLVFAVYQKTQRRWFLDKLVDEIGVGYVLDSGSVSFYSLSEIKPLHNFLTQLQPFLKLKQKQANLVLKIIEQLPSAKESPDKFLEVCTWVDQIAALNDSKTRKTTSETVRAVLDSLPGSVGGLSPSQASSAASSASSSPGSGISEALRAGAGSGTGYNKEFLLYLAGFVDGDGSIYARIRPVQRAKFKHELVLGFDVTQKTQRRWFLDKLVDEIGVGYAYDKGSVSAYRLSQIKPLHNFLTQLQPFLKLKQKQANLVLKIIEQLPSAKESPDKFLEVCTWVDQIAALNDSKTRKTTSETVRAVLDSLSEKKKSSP
How it is done:
as §1

A further series has as its target T4, PCS 7-8L.209 (synthetic (I-CreI derived, …)).
T4 chain: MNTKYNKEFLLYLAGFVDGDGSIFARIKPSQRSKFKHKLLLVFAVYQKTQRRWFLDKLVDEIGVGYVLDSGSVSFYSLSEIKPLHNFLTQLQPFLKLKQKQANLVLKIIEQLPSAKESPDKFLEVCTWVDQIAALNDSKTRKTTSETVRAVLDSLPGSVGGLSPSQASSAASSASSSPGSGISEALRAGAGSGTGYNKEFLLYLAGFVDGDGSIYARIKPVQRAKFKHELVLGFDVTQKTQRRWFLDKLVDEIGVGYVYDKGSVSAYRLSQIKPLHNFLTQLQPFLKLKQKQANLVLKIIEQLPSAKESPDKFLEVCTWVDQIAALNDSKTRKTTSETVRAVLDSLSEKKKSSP
How it is done:
as §1

The next series concerns the target T5, PCS 7-8L.268 (synthetic (I-CreI derived, …)).
T5 chain: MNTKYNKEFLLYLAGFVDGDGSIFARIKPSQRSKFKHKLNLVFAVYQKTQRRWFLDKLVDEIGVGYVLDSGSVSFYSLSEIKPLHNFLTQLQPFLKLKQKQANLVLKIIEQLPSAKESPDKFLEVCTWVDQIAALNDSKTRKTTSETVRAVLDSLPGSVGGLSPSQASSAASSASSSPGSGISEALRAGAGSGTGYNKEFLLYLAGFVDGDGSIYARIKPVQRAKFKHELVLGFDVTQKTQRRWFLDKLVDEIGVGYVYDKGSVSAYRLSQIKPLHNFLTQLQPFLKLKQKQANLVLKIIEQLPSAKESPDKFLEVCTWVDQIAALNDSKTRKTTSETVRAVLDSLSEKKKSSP
The protocol:
as §1

B1: PCS 7-8 recognition sequence (dsDNA)
DNA 1: TGGACCTCTTTGCCCCAGGGGA
DNA 2: TCCCCTGGGGCAAAGAGGTCCA
Consider B1, for which the activity amounted to 58.4 % indels with PCS 7-8L.204; 55.4 % indels with PCS 7-8L.261; 53.5 % indels with PCS 7-8L.262; 53.2 % indels with PCS 7-8L.209; 52.5 % indels in the series with PCS 7-8L.268.

(Values after patent publication US20200131489, “ENGINEERED MEGANUCLEASES SPECIFIC FOR RECOGNITION SEQUENCES IN THE PCSK9 GENE” (Precision BioSciences, Inc., published 2020).)
